Biological target: extracellular domain of p95HER2 peptide with a poly-histidine-tag in the C-terminus (human)
Assay: SPR

B1: Oslo-2 mAb (antibody, V domains shown)
VH: EVQILETGGGLVKPGGSLRLSCATSGFNFNDYFMNWVRQAPGKGLEWIAQIRNKNYNYATYFAESLEGRFTISRDDSKSSVYLQVNSLRAEDTALYYCTELRYDYWGQGVMVTVSS
VL: DIVMTQSPFSLAVSEGEMVTINCKSSQSLLSSGNQKNNLAWYQQKPGQSPKLLIYYASTRQSGVPDRFIGSGSGTDFTLTISDVQAEDLADYYCLQHYSSPYTFGAGTKLELK
In the case of B1, the koff is reported as 0.00893 s⁻¹.

From publication PMC9563779 (2022)
